According to the Human Domainome abundance scans (Beltran et al. 2025):
± gives the uncertainty stated by the source.

B1: Metastasis-associated protein MTA3, residues 265 to 317; numbered along this chain, Q9BTC8 (parent)
chain: RDEMEEWSASEASLFEEALEKYGKDFNDIRQDFLPWKSLTSIIEYYYMWKTTD

Variants of: B1
Test: abundance fitness (aPCA) (normalised: wild type 0, dead -1); higher = more abundant; growth selection in yeast, the domain comes from the species named
Settings: Homo sapiens

Variant | abundance fitness
RDTMEEWSASEASLFEEALEKYGKDFNDIRQDFLPWKSLTSIIEYYYMWKTTD | 0.741 ± 0.15
RDNMEEWSASEASLFEEALEKYGKDFNDIRQDFLPWKSLTSIIEYYYMWKTTD | 0.993 ± 0.19
RDVMEEWSASEASLFEEALEKYGKDFNDIRQDFLPWKSLTSIIEYYYMWKTTD | -0.151 ± 0.095
RDLMEEWSASEASLFEEALEKYGKDFNDIRQDFLPWKSLTSIIEYYYMWKTTD | 0.135 ± 0.08
RDPMEEWSASEASLFEEALEKYGKDFNDIRQDFLPWKSLTSIIEYYYMWKTTD | -0.466 ± 0.47
RDSMEEWSASEASLFEEALEKYGKDFNDIRQDFLPWKSLTSIIEYYYMWKTTD | 0.173 ± 0.09
RDKMEEWSASEASLFEEALEKYGKDFNDIRQDFLPWKSLTSIIEYYYMWKTTD | 0.566 ± 0.19
RDDMEEWSASEASLFEEALEKYGKDFNDIRQDFLPWKSLTSIIEYYYMWKTTD | -0.006 ± 0.079
RDGMEEWSASEASLFEEALEKYGKDFNDIRQDFLPWKSLTSIIEYYYMWKTTD | -0.475 ± 0.15
RDYMEEWSASEASLFEEALEKYGKDFNDIRQDFLPWKSLTSIIEYYYMWKTTD | 0.938 ± 0.43
RDAMEEWSASEASLFEEALEKYGKDFNDIRQDFLPWKSLTSIIEYYYMWKTTD | -0.342 ± 0.14
RAEMEEWSASEASLFEEALEKYGKDFNDIRQDFLPWKSLTSIIEYYYMWKTTD | 0.033 ± 0.15
RMEMEEWSASEASLFEEALEKYGKDFNDIRQDFLPWKSLTSIIEYYYMWKTTD | 0.033 ± 0.22
RHEMEEWSASEASLFEEALEKYGKDFNDIRQDFLPWKSLTSIIEYYYMWKTTD | -0.296 ± 0.072
RREMEEWSASEASLFEEALEKYGKDFNDIRQDFLPWKSLTSIIEYYYMWKTTD | -0.285 ± 0.15
REEMEEWSASEASLFEEALEKYGKDFNDIRQDFLPWKSLTSIIEYYYMWKTTD | 0.199 ± 0.076
RSEMEEWSASEASLFEEALEKYGKDFNDIRQDFLPWKSLTSIIEYYYMWKTTD | -0.249 ± 0.23
RKEMEEWSASEASLFEEALEKYGKDFNDIRQDFLPWKSLTSIIEYYYMWKTTD | 0.523 ± 0.093
RNEMEEWSASEASLFEEALEKYGKDFNDIRQDFLPWKSLTSIIEYYYMWKTTD | 0.058 ± 0.23
RPEMEEWSASEASLFEEALEKYGKDFNDIRQDFLPWKSLTSIIEYYYMWKTTD | -0.617 ± 0.49
RFEMEEWSASEASLFEEALEKYGKDFNDIRQDFLPWKSLTSIIEYYYMWKTTD | -0.133 ± 0.47
RGEMEEWSASEASLFEEALEKYGKDFNDIRQDFLPWKSLTSIIEYYYMWKTTD | 0.204 ± 0.084
RWEMEEWSASEASLFEEALEKYGKDFNDIRQDFLPWKSLTSIIEYYYMWKTTD | -0.323 ± 0.28
RTEMEEWSASEASLFEEALEKYGKDFNDIRQDFLPWKSLTSIIEYYYMWKTTD | 0.271 ± 0.17
RDEMEHWSASEASLFEEALEKYGKDFNDIRQDFLPWKSLTSIIEYYYMWKTTD | 0.415 ± 0.24

Variant | abundance fitness
RDEMEFWSASEASLFEEALEKYGKDFNDIRQDFLPWKSLTSIIEYYYMWKTTD | -0.159 ± 0.37
RDEMEDWSASEASLFEEALEKYGKDFNDIRQDFLPWKSLTSIIEYYYMWKTTD | -0.443 ± 0.32
RDEMERWSASEASLFEEALEKYGKDFNDIRQDFLPWKSLTSIIEYYYMWKTTD | -0.226 ± 0.13
RDEMELWSASEASLFEEALEKYGKDFNDIRQDFLPWKSLTSIIEYYYMWKTTD | -0.757 ± 0.24
RDEMESWSASEASLFEEALEKYGKDFNDIRQDFLPWKSLTSIIEYYYMWKTTD | -0.289 ± 0.19
RDEMEGWSASEASLFEEALEKYGKDFNDIRQDFLPWKSLTSIIEYYYMWKTTD | -0.302 ± 0.13
RDEMEKWSASEASLFEEALEKYGKDFNDIRQDFLPWKSLTSIIEYYYMWKTTD | 0.096 ± 0.28
RDEMEMWSASEASLFEEALEKYGKDFNDIRQDFLPWKSLTSIIEYYYMWKTTD | 0.08 ± 0.33
RDEMEAWSASEASLFEEALEKYGKDFNDIRQDFLPWKSLTSIIEYYYMWKTTD | 0.228 ± 0.19
RDEMEPWSASEASLFEEALEKYGKDFNDIRQDFLPWKSLTSIIEYYYMWKTTD | -0.384 ± 0.27
VDEMEEWSASEASLFEEALEKYGKDFNDIRQDFLPWKSLTSIIEYYYMWKTTD | 0.231 ± 0.4
GDEMEEWSASEASLFEEALEKYGKDFNDIRQDFLPWKSLTSIIEYYYMWKTTD | 0.335 ± 0.17
IDEMEEWSASEASLFEEALEKYGKDFNDIRQDFLPWKSLTSIIEYYYMWKTTD | 0.025 ± 0.23
FDEMEEWSASEASLFEEALEKYGKDFNDIRQDFLPWKSLTSIIEYYYMWKTTD | 0.372 ± 0.15
LDEMEEWSASEASLFEEALEKYGKDFNDIRQDFLPWKSLTSIIEYYYMWKTTD | -0.098 ± 0.11
ADEMEEWSASEASLFEEALEKYGKDFNDIRQDFLPWKSLTSIIEYYYMWKTTD | 0.304 ± 0.35
KDEMEEWSASEASLFEEALEKYGKDFNDIRQDFLPWKSLTSIIEYYYMWKTTD | 0.028 ± 0.26
CDEMEEWSASEASLFEEALEKYGKDFNDIRQDFLPWKSLTSIIEYYYMWKTTD | 0.057 ± 0.077
NDEMEEWSASEASLFEEALEKYGKDFNDIRQDFLPWKSLTSIIEYYYMWKTTD | 0.378 ± 0.14
TDEMEEWSASEASLFEEALEKYGKDFNDIRQDFLPWKSLTSIIEYYYMWKTTD | 0.299 ± 0.16
SDEMEEWSASEASLFEEALEKYGKDFNDIRQDFLPWKSLTSIIEYYYMWKTTD | -0.259 ± 0.2
PDEMEEWSASEASLFEEALEKYGKDFNDIRQDFLPWKSLTSIIEYYYMWKTTD | -0.529 ± 0.34
MDEMEEWSASEASLFEEALEKYGKDFNDIRQDFLPWKSLTSIIEYYYMWKTTD | 0.11 ± 0.23
WDEMEEWSASEASLFEEALEKYGKDFNDIRQDFLPWKSLTSIIEYYYMWKTTD | -0.044 ± 0.26
